In US9144594B2, “Cathepsin L mediated diseases and associated methods and products” (University of Miami, priority 2005, dated 2015):

System: mice
Assay: Protein in urine after in vivo gene delivery of dynamin mutants into healthy mice (Bradford)
Set-up: species or system mouse
Experimental: Next, the level of urinary protein loss following gene delivery of dynamin mutants was examined (Table 2). […] The expression of K44A was associated with severe proteinuria (1.18 mg/ml) at peak gene expression time of 10 hours post injection. The reduction in gene expression was paralleled by a reduction in proteinuria (0.77 mg/ml). Gene transfer of dynR725A caused an increase in proteinuria (0.58 mg/ml). Although this was not a significant increase, it is probable that it is a consequence of the partial podocyte FP effacement seen after gene transfer of dynR725A, and due to increase in the stress fibers formation observed in cultured podocytes.
To explore whether functional dynamin is required for the maintenance of FP morphology in healthy kidneys, it was examined whether expression of dominant negative dynK44A disrupts podocyte function. […] In contrast, podocin driven expression of dynK44A, the dynamin mutant that cannot bind GTP, caused FP effacement (FIG. 21B) and proteinuria (1.1±0.26 mg/ml) at the peak of gene expression […] after gene delivery (FIGS. 21D and 25C). […] In other words, tight regulation of the life-time of the GTP-bound form of dynamin appears to be required for normal FP morphology and ultrafiltration.
CatL plasmids encoding short and long CatL (Goulet et al., Biol Chem 387, 1285-1293 (2004)), Dyn1 plasmids (pcDNA-driven) or p2.5 Podocin-driven (Moeller et al., Genesis 35, 39-42 (2003)) were introduced into mice (n>10, each construct) using the TransIT in vivo gene delivery system according to the manufacturer's instruction (Mirus Bio Corporation, Madison, Wis.). 10 and 24 h after gene delivery, proteinuria was assessed by Multistix 8 SG strips (Bayer Corporation, Elkhart, Ind.), and Bradford protein assay (Sigma, Saint Louis, Mo.). From the same urines the protein creatinine ratio was determined with Albuwell M and Creatinine Companion protein creatinine ELISA kits (Exocell Inc., Philadelphia, Pa.).

B1: dynK44A: dominant-negative dynamin mutant that cannot bind GTP (protein, UniProt Q05193 1-864, looked up, variant K44A)
Dynamin-1: MGNRGMEDLIPLVNRLQDAFSAIGQNADLDLPQIAVVGGQSAGASSVLENFVGRDFLPRGSGIVTRRPLVLQLVNATTEYAEFLHCKGKKFTDFEEVRLEIEAETDRVTGTNKGISPVPINLRVYSPHVLNLTLVDLPGMTKVPVGDQPPDIEFQIRDMLMQFVTKENCLILAVSPANSDLANSDALKVAKEVDPQGQRTIGVITKLDLMDEGTDARDVLENKLLPLRRGYIGVVNRSQKDIDGKKDITAALAAERKFFLSHPSYRHLADRMGTPYLQKVLNQQLTNHIRDTLPGLRNKLQSQLLSIEKEVEEYKNFRPDDPARKTKALLQMVQQFAVDFEKRIEGSGDQIDTYELSGGARINRIFHERFPFELVKMEFDEKELRREISYAIKNIHGIRTGLFTPDMAFETIVKKQVKKIREPCLKCVDMVISELISTVRQCTKKLQQYPRLREEMERIVTTHIREREGRTKEQVMLLIDIELAYMNTNHEDFIGFANAQQRSNQMNKKKTSGNQDEILVIRKGWLTINNIGIMKGGSKEYWFVLTAENLSWYKDDEEKEKKYMLSVDNLKLRDVEKGFMSSKHIFALFNTEQRNVYKDYRQLELACETQEEVDSWKASFLRAGVYPERVGDKEKASETEENGSDSFMHSMDPQLERQVETIRNLVDSYMAIVNKTVRDLMPKTIMHLMINNTKEFIFSELLANLYSCGDQNTLMEESAEQAQRRDEMLRMYHALKEALSIIGDINTTTVSTPMPPPVDDSWLQVQSVPAGRRSPTSSPTPQRRAPAVPPARPGSRGPAPGPPPAGSALGGAPPVPSRPGASPDPFGPPPQVPSRPNRAPPGVPSRSGQASPSRPESPRPPFDL
- Protein in the urine (Table 2A, gene delivery into mice, t = 0): 0.23 ± 0.11 mg/mL
- Protein in the urine (Table 2A, gene delivery into mice, t = 10 h, listed as Dyn K44A): 1.18 ± 0.22 mg/mL
- Protein in the urine (Table 2A, gene delivery into mice, t = 10 h, listed as K44A): 1.18 mg/mL
- Protein in the urine (Table 2A, gene delivery into mice, t = 24 h, listed as Dyn K44A): 0.77 ± 0.11 mg/mL
- Protein in the urine (Table 2A, gene delivery into mice, t = 24 h, listed as K44A): 0.77 mg/mL
- Protein in the urine (Table 5 Basic Phenotype, podocin-driven vectors, t = 14 h): 1.1 ± 0.26 mg/mL
